# Assay results taken from paper PMC10635575.
# B1: PGT145 (antibody, V domains shown)
# VH: QVQLVQSGAEVKKPGSSVKVSCKASGNSFSNHDVHWVRQATGQGLEWMGWMSHEGDKTGLAQKFQGRVTITRDSGASTVYMELRGLTADDTAIYYCLTGSKHRLRDYFLYNEYGPNYEEWGDYLATLDVWGHGTAVTVSS
# VL: EVVITQSPLFLPVTPGEAASLSCKCSHSLQHSTGANYLAWYLQRPGQTPRLLIHLATHRASGVPDRFSGSGSGTDFTLKISRVESDDVGTYYCMQGLHSPWTFGQGTKVEIK
# Experiments:
# [1] = biological target: CZA97.012 SOSIP.664 trimer (HIV-1, Clade C, clone CZA97.012 (97ZA.012))
# [2] = biological target: CZA97.012 SOSIP.664 trimer, His-tagged, 2G12-affinity- and then SEC-purified (HIV-1 (Clade C, clone CZA97.012)); assay: SPR
# [3] = biological target: CZA97.012 SOSIP.664 trimer (HIV-1, Clade C, clone CZA97.012 (97ZA.012)); assay: SPR
# [4] = N-glycosylation at N411
# [5] = biological target: CZA97.012 SOSIP.664 trimer (HIV-1, Clade C, clone CZA97.012 (97ZA.012)); assay: cryo-EM structure
# [6] = biological target: CZA97.012 SOSIP.664 trimer (HIV-1, Clade C, clone CZA97.012 (97ZA.012)); assay: negative-stain electron microscopy; trimer purified by 2G12-, PGT145- or PGT151-affinity chromatography and then SEC, ~0.02 mg/mL, 2% uranyl formate, 2D class averages
# [7] = biological target: CZA97.012 SOSIP.664 trimer (HIV-1, Clade C, clone CZA97.012 (97ZA.012)); remark: listed apart in the source
molecule,measurement,setting,value
3BNC117 Fab,"IC50 of neutralization of CZA97.012 pseudovirus (Env on virions) by 3BNC117 IgG, TZM-bl assay",[1],0.32 µg/mL
same,Kd,[2],15 nM
same,koff,[2],0.00014 s⁻¹
same,kon,[2],9700 M⁻¹ s⁻¹
same,stoichiometry N,[2],2.7
same,stoichiometry N,[3],2.8
"CZA97.012 Env, D411N mutant: D411N (PNGS knock-in) vs parental; neutralization by autologous rabbit sera 2082 and 2084",other,[4],decreases
"CZA97.012 Env, D411N mutant: D411N (PNGS knock-in) vs parental; neutralization by autologous rabbit serum 2086",other,[4],decreases
"CZA97.012 Env, D411N mutant: D411N (PNGS knock-in) vs parental; neutralization by bNAbs",other,[4],no change
CZA97.012 SOSIP.664 trimer (complex),stoichiometry N,[5],3
same,stoichiometry N,[6],3
B1,"IC50 of neutralization of CZA97.012 pseudovirus (Env on virions) by PGT145 IgG, TZM-bl assay",[7],7.6 µg/mL
